Experimental data reported in patent US20210393741A1.

Biological target: CD91 on macrophages (mouse (C57BL/6 mice)) (UniProt Q91ZX7)
Assay: cell-based or functional assay

Sequence of UniProt Q91ZX7 (Q91ZX7 20-4545): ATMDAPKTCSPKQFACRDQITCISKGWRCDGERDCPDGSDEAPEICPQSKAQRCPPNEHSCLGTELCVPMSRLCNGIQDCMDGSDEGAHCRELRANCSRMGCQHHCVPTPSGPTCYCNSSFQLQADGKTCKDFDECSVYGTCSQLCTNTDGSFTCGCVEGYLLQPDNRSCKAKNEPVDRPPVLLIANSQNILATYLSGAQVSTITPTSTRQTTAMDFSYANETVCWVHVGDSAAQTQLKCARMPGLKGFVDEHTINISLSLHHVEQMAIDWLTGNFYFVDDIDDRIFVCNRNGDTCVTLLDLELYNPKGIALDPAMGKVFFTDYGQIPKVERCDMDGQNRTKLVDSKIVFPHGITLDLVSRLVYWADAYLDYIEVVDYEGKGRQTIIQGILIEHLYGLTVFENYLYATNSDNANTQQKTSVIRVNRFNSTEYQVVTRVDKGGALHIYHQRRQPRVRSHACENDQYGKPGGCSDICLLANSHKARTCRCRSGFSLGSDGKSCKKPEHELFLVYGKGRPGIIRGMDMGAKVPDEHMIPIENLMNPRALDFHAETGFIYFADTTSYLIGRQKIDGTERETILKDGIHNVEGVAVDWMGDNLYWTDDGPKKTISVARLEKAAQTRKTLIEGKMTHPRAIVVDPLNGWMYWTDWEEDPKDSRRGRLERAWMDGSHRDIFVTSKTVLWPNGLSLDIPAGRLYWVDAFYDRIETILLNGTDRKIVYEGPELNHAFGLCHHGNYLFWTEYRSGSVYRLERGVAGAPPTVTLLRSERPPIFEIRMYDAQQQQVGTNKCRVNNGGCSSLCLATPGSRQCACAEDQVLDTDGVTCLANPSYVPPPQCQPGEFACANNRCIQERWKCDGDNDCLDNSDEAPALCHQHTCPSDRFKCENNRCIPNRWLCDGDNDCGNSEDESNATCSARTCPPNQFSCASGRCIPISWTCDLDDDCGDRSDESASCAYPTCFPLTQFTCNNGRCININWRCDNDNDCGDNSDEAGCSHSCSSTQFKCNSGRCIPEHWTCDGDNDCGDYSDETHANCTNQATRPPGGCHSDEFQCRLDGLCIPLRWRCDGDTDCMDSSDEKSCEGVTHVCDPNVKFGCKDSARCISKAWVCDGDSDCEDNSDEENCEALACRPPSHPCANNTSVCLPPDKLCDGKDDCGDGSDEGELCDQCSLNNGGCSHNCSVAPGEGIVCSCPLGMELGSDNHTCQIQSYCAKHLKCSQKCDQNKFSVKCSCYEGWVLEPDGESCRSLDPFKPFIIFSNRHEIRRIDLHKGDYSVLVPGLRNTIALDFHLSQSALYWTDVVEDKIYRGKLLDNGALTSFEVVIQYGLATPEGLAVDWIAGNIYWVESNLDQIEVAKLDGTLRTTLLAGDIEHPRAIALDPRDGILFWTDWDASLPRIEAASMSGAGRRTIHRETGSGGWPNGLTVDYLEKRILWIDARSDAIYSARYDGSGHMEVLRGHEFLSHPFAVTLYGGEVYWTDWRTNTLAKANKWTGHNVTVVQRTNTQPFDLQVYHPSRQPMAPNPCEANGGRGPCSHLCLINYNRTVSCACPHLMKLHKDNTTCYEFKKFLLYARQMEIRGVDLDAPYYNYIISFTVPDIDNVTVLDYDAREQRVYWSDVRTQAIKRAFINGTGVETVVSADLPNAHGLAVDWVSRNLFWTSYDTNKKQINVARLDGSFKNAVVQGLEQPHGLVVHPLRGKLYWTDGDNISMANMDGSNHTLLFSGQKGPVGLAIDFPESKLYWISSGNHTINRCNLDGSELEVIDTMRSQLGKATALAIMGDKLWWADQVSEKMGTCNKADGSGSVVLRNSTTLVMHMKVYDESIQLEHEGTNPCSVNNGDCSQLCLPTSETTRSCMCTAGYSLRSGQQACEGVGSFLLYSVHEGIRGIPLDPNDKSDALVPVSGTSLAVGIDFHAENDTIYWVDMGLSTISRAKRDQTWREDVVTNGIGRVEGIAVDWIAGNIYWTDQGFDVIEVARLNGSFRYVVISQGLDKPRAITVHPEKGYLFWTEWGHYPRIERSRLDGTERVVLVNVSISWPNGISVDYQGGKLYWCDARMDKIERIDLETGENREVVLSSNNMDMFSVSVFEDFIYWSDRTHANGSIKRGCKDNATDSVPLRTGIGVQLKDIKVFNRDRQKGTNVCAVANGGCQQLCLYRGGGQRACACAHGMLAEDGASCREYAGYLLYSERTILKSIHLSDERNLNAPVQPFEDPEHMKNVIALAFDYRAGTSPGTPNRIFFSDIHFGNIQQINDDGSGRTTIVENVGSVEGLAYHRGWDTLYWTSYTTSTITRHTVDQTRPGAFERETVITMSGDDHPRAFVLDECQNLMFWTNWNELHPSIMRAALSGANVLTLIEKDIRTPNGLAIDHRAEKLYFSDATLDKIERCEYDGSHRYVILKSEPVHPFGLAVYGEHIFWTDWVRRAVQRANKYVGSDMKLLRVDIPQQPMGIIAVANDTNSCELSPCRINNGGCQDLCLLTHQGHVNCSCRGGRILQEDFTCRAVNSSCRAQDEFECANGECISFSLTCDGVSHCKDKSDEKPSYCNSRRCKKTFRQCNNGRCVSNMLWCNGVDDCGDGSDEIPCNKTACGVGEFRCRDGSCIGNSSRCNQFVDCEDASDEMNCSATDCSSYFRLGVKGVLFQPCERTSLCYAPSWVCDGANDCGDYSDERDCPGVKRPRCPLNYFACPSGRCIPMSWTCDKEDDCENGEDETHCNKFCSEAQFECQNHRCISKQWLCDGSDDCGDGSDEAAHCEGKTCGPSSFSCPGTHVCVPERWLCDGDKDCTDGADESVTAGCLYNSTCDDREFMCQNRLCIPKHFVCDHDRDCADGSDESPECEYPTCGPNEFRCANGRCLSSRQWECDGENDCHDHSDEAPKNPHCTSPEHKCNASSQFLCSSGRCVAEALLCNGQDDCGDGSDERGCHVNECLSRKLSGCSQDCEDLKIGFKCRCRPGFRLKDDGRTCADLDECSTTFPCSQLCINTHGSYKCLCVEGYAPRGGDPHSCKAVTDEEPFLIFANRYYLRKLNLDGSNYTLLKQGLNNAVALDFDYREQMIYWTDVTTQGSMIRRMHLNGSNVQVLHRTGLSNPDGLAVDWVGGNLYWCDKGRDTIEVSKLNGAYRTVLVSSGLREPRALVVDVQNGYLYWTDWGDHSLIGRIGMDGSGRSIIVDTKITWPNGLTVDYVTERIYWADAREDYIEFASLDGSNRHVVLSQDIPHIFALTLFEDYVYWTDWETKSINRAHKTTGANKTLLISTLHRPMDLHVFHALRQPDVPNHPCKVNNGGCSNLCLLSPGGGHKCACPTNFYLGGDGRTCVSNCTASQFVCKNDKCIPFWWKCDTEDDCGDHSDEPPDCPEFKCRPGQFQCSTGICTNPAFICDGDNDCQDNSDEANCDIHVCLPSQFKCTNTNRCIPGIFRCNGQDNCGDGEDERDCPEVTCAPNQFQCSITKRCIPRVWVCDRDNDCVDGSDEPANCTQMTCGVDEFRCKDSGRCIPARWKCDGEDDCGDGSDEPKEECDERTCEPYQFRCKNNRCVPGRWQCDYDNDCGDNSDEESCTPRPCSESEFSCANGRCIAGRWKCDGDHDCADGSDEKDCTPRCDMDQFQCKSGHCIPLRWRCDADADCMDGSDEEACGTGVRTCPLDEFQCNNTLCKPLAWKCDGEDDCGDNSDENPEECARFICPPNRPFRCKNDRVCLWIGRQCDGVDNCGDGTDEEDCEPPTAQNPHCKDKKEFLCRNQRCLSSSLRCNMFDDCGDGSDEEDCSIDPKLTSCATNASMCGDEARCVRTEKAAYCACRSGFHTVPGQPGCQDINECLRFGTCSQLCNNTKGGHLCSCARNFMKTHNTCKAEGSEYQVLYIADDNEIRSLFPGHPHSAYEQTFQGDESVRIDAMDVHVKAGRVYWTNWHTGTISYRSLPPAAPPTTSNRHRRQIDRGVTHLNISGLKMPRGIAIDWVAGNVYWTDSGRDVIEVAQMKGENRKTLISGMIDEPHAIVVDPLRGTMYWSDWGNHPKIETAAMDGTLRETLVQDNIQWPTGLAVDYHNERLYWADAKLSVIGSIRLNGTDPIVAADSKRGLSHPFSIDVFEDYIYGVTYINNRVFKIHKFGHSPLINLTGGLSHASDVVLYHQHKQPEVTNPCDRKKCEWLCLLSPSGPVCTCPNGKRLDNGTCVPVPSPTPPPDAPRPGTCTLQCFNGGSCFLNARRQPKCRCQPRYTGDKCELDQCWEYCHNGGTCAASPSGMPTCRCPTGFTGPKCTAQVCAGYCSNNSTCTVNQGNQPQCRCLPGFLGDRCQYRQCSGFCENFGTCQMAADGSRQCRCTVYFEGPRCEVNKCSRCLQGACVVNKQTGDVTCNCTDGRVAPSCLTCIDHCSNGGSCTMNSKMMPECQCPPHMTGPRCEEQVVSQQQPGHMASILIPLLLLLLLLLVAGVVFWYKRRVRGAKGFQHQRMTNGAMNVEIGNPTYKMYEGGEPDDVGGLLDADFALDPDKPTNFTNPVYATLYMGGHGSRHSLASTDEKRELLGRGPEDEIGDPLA

IFN alpha MFI (Fold Change), RAW264.7 macrophage (M1) cells pulsed with calreticulin 10 ug/ml for 20 min, FACS: 7.5 fold change | IFN beta MFI (Fold Change), RAW264.7 macrophage (M1) cells pulsed with calreticulin 10 ug/ml for 20 min, FACS: 7 fold change | IL-12 MFI (Fold Change), RAW264.7 macrophage (M1) cells pulsed with calreticulin 10 ug/ml for 20 min, FACS: 3.5 fold change | IL-15 MFI (Fold Change), RAW264.7 macrophage (M1) cells pulsed with calreticulin 10 ug/ml for 20 min, FACS: 3.5 fold change
Substance: calreticulin (CRT), recombinant (ligand)
